{
  "source": "patent US20170260508A1",
  "about": "(FRED HUTCHINSON CANCER RESEARCH CENTER, published 2017)",
  "binders": {"B1": {"name": "Angptl2-FLAG, full-length human Angptl2 secreted from transfected 293T cells (ligand)", "chain": "QEDGFEGTEEGSPREFIYLNRYKRAGESQDKCTYTFIVPQQRVTGAICVNSKEPEVLLENRVHKQELELLNNELLKQKRQIETLQQLVEVDGGIVSEVKLLRKESRNMNSRVTQLYMQLLHEIIRKRDNALELSQLENRILNQTADMLQLASKYKDLEHKYQHLATLAHNQSEIIAQLEEHCQRVPSARPVPQPPPAAPPRVYQPPTYNRIINQISTNEIQSDQNLKVLPPPLPTMPTLTSLPSSTDKPSGPWRDCLQALEDGHDTSSIYLVKPENTNRLMQVWCDQRHDPGGWTVIQRRLDGSVNFFRNWETYKQGFGNIDGEYWLGLENIYWLTNQGNYKLLVTMEDWSGRKVFAEYASFRLEPESEYYKLRLGRYHGNAGDSFTWHNGKQFTTLDRDHDVYTGNCAHYQKGGWWYNACAHSNLNGVWYRGGHYRSRYQDGVYWAEFRGGSYSLKKVVMMIRPNPNTFH", "notes": "Runs partly as a high molecular weight (>250 kD) multimer; also called full-length Angptl2; FLAG-tagged Angptl2; not shown: FLAG tag at the C terminus"}},
  "key": {"[1]": {"target": "B1", "experiment": "flow cytometry, Angptl2 on 293T cells expressing the domain", "description": "(§1) Flow cytometry. […] Cells were harvested at 48 h for analysis. […] Anti-LILRB2-PE was used as indicated. Cells were analyzed using either a FACSCalibur or FACSAria instrument (Becton Dickinson).\nLILRB2 contains four extracellular immunoglobulin (Ig)-like domains. Takai et al., J Biomed Biotechnol. 2011; 2011:275302. […] To test this hypothesis, a number of domain and site-specific mutations of LILRB2 were generated for the flow cytometry-based cell surface ligand binding assay and chimeric reporter assay."}, "[2]": {"target": "B1", "experiment": "flow cytometry, Angptl2 on 293T cells expressing the mutant", "description": "as §1"}, "[3]": {"target": "T1, full-length LILRB2 Y96A on 293T cells (human, UniProt Q8N423 22-597)", "T1 construct": "also called single mutation in Y96", "experiment": "flow cytometry, Angptl2 on 293T cells expressing mutant LILRB2", "description": "as §1"}, "[4]": {"target": "T2, full-length LILRB2 R95E on 293T cells (human, UniProt Q8N423 22-597)", "T2 construct": "also called single mutation in R95", "experiment": "flow cytometry, Angptl2 on 293T cells expressing mutant LILRB2", "description": "as §1"}, "[5]": {"target": "T3, full-length LILRB2 G94D on 293T cells (human, UniProt Q8N423 22-597)", "T3 construct": "also called single mutation in G94", "experiment": "flow cytometry, Angptl2 on 293T cells expressing mutant LILRB2", "description": "as §1"}, "[6]": {"target": "T4, full-length LILRB2 with mutations in AA 92-100 (Mut-8 aa) (human)", "T4 construct": "also called the full-length LILRB2 with the same mutation", "experiment": "flow cytometry, Angptl2 on 293T cells expressing mutant LILRB2", "description": "as §1"}},
  "data": [
    {"binder": "LILRB2 Ig4 domain expressed on 293T cells (receptor, The range is stated for the chimeric reporter constructs; also called 4th Ig domain) IRGTPFISVQPGPTVASGENVTLLCQSWRQFHTFLLTKAGAADAPLRLRSIHEYPKYQAEFPMSPVTSAHAGTYRCYGSLNSDPYLLSHPSEPLELVVSGPSMGSSPPPTGPISTPGPEDQPLTPTGSDPQSGLGRHL", "values": [
      {"measurement": "binding result", "setting": "[1]", "result": "no binding"}
    ]},
    {"binder": "full-length LILRB2 Y96A/G392D on 293T cells (receptor, also called Y96A combined with G392D) QTGTIPKPTLWAEPDSVITQGSPVTLSCQGSLEAQEYRLYREKKSASWITRIRPELVKNGQFHIPSITWEHTGRAGCQYYSRARWSELSDPLVLVMTGAYPKPTLSAQPSPVVTSGGRVTLQCESQVAFGGFILCKEGEEEHPQCLNSQPHARGSSRAIFSVGPVSPNRRWSHRCYGYDLNSPYVWSSPSDLLELLVPGVSKKPSLSVQPGPVVAPGESLTLQCVSDVGYDRFVLYKEGERDLRQLPGRQPQAGLSQANFTLGPVSRSYGGQYRCYGAHNLSSECSAPSDPLDILITGQIRGTPFISVQPGPTVASGENVTLLCQSWRQFHTFLLTKAGAADAPLRLRSIHEYPKYQAEFPMSPVTSAHADTYRCYGSLNSDPYLLSHPSEPLELVVSGPSMGSSPPPTGPISTPGPEDQPLTPTGSDPQSGLGRHLGVVIGILVAVVLLLLLLLLLFLILRHRRQGKHWTSTQRKADFQHPAGAVGPEPTDRGLQWRSSPAADAQEENLYAAVKDTQPEDGVEMDTRAAASEAPQDVTYAQLHSLTLRRKATEPPPSQEREPPAEPSIYATLAIH", "values": [
      {"measurement": "binding result", "setting": "[2]", "result": "no binding"}
    ]},
    {"binder": "full-length LILRB2 Y96A/Y394A on 293T cells (receptor, also called Y96A combined with Y394A) QTGTIPKPTLWAEPDSVITQGSPVTLSCQGSLEAQEYRLYREKKSASWITRIRPELVKNGQFHIPSITWEHTGRAGCQYYSRARWSELSDPLVLVMTGAYPKPTLSAQPSPVVTSGGRVTLQCESQVAFGGFILCKEGEEEHPQCLNSQPHARGSSRAIFSVGPVSPNRRWSHRCYGYDLNSPYVWSSPSDLLELLVPGVSKKPSLSVQPGPVVAPGESLTLQCVSDVGYDRFVLYKEGERDLRQLPGRQPQAGLSQANFTLGPVSRSYGGQYRCYGAHNLSSECSAPSDPLDILITGQIRGTPFISVQPGPTVASGENVTLLCQSWRQFHTFLLTKAGAADAPLRLRSIHEYPKYQAEFPMSPVTSAHAGTARCYGSLNSDPYLLSHPSEPLELVVSGPSMGSSPPPTGPISTPGPEDQPLTPTGSDPQSGLGRHLGVVIGILVAVVLLLLLLLLLFLILRHRRQGKHWTSTQRKADFQHPAGAVGPEPTDRGLQWRSSPAADAQEENLYAAVKDTQPEDGVEMDTRAAASEAPQDVTYAQLHSLTLRRKATEPPPSQEREPPAEPSIYATLAIH", "values": [
      {"measurement": "binding result", "setting": "[2]", "result": "no binding"}
    ]},
    {"binder": "B1", "values": [
      {"measurement": "reduction of Angptl2 binding", "setting": "[3]", "result": 50, "unit": "%"},
      {"measurement": "reduction of Angptl2 binding", "setting": "[4]", "result": 50, "unit": "%"},
      {"measurement": "reduction of Angptl2 binding", "setting": "[5]", "result": 50, "unit": "%"},
      {"measurement": "decrease of Angptl2 binding relative to the wild-type protein", "setting": "[6]", "result": "> 50", "unit": "%"}
    ]}
  ]
}
